T1: human CD20 (membrane spanning 4-domains A1, MS4A1) on cells (human, UniProt P11836 1-297)
T1 construct: whole, on cells; Target cells used: Raji, K562-CD20, CHO-CD20, Daudi, RPMI-8226 (very low CD20); also called CD20 receptor; CD20 antigen
T1 sequence (looked up): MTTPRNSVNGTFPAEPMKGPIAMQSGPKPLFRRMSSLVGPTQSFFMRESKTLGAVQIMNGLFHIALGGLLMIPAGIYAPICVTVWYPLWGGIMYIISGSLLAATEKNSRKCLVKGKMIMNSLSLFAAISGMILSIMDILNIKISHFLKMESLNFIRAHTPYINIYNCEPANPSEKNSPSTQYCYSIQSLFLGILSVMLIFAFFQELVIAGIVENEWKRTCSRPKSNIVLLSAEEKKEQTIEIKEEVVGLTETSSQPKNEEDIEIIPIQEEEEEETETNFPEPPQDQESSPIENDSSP


Tests used:
[1] = biological target: T1, human CD20 (membrane spanning 4-domains …); experiment: flow cytometry, mAb titrated on Raji cells, PE anti-human IgG1 Fc detection
Description: (§1) Each of three exemplary of anti-CD20 VHH sequences (clone ID: VHH-273, VHH-466 and VHH-496) with human IgG1 Fc fragment sequence (SEQ ID NO: 159) were cloned into a mammalian expression vector—pcDNA3.4, to facilitate the recombinant protein expression. The DNA codons were further optimized for optimal expression in mammalian host cell—Expi293F. The antibodies were harvested from the supernatant of cell culture, one-step purified by MabSelect SuRe LX and sterilized via a 0.2 μm filter. The purified antibody concentrations were determined by A280 and reached 2-6 mg/mL with ˜90% purity. Anti-CD20 scFv-huIgG1Fc mAb with amino acid sequence of Rituximab (C2B8) scFv shown in SEQ ID NO: 158 and anti-CD20 Fab-huIgG1Fc mAb with amino acid sequences of Leul6 VH-CH1 and VL-CL shown in SEQ ID NO: 163 and SEQ ID NO: 164 were used as positive controls for the cell surface binding assay. CD20 positive cell lines—Raji, K562-CD20 and negative cell line—K562 were re-suspended in complete culture medium, cells concentration was diluted to 1×10⁶ cells/mL and the staining was performed in 2×10⁵ cells per well. The mAbs were serially diluted from maximal concentration of 2000 nM (3-fold reduction, 12 pts) and added according to the experimental plan and protocol. The mAbs and cells were co-incubated for 1 hour at 4° C. Then, the cells were washed with 2(X) μL of DPBS+0.5% FBS and spun at 300 g for 5 mins, 4° C. The cells were stained with the detection antibody—PE-conjugated mouse anti-human IgG1 Fc (BioLegend, Cat. #409304, 1:100) for 40 mins at 4° C. The cells were then washed again and re-suspended with 200 μL of DPBS+0.5% FBS for flow cytometric analysis on a NovoCyte Flow Cytometer (ACEA Biosciences). The FACS data was analyzed by Novoexpress software, and the MFI (median fluorescent intensity) was analyzed by GraphPad PRISM version 6.0.

[2] = biological target: T1, human CD20 (membrane spanning 4-domains …); experiment: flow cytometry, mAb titrated on K562-CD20 cells, PE anti-human IgG1 Fc detection
Description: as §1, with “The mAbs and cells were co-incubated for 1 hour at 4° C. Then, the cells were washed with 2(X) μL of DPBS+0.5% FBS and spun at 300 g for 5 mins, 4° C. The cells were stained with the detection antibody—PE-conjugated mouse anti-human IgG1 Fc (BioLegend, Cat. #409304, 1:100) for 40 mins at 4° C. The cells were then washed again and re-suspended with 200 μL of DPBS+0.5% FBS for flow cytometric analysis on a NovoCyte Flow Cytometer (ACEA Biosciences).” left out

Binder	EC50 [1] [nM]	EC50 [2] [nM]
Anti-CD20 scFv-huIgG1Fc mAb (Fc fusion, also called Rituximab (C2B8) scFv-huIgG1Fc; not shown: human IgG1 Fc by the name) QIVLSQSPAILSASPGEKVTMTCRASSSVSYIHWFQQKPGSSPKPWIYATSNLASGVPVRFSGSGSGTSYSLTISRVEAEDAATYYCQQWTSNPPTFGGGTKLEIKGGGGSGGGGSGGGGSQVQLQQPGAELVKPGASVKMSCKASGYTFTSYNMHWVKQTPGRGLEWIGAIYPGNGDTSYNQKFKGKATLTADKSSSTAYMQLSSLTSEDSAVYYCARSTYYGGDWYFNVWGAGTTVTVSA	75.3	41.1
Anti-CD20 Fab-huIgG1Fc mAb (antibody, V domains shown, also called Leul6 (Leu16) Fab-huIgG1Fc; not shown: human IgG1 Fc by the name) VH: EVQLQQSGAELVKPGASVKMSCKASGYTFTSYNMHWVKQTPGQGLEWIGAIYPGNGDTSYNQKFKGKATLTADKSSSTAYMQLSSLTSEDSADYYCARSNYYGSSYWFFDVWGAGTTVTVSS VL: DIVLTQSPAILSASPGEKVTMTCRASSSVNYMDWYQKKPGSSPKPWIYATSNLASGVPARFSGSGSGTSYSLTISRVEAEDAATYYCQQWSFNPPTFGGGTKLEIKR	13.5	–
VHH-440-huIgG1Fc mAb (Fc fusion, not shown: human IgG1 Fc by the name) QVHLMESGGGSVQAGGSLRLSCQASAYIRVFYLMGWFRQAPGKEREEVARVTADGFTNHAASVKGRFTISKDNAKNTLYLQMDSMKSEDTAVYYCAAGRTWNSGFEYWGQGTQVTVSS	11.1	6.24

— US20230272104A1 (LEGEND BIOTECH IRELAND, published 2023)
